Consider 21 molecules from patent US20210388087A1 (Chugai, published 2021).

Sequences and labels used below:
B1: CE115HA000/GLS3000 F55Q (antibody, IgG1, name in Kabat numbering, V domains shown)
VH: QVQLVESGGGVVQPGRSLRLSCAASGFTFSNAWMHWVRQAPGKGLEWVAQIKAKSNNYATYYAESVKGRFTISRDDSKNSLYLQMNSLKTEDTAVYYCRYVHYGAYYGVDAWGQGTTVTVSS
VL: DIVMTQSPLSLPVTPGEPASISCRSSQSLVHSNRNTYLHWYQQKPGQAPRLLIYKVSNRQSGVPDRFSGSGSGTDFTLKISRVEAEDVGVYYCGQGTQVPYTFGQGTKLEIK
notes: one-arm IgG1
B2: CE115HA000/GLS3000 G89H (antibody, IgG1, name in Kabat numbering, V domains shown)
VH: QVQLVESGGGVVQPGRSLRLSCAASGFTFSNAWMHWVRQAPGKGLEWVAQIKAKSNNYATYYAESVKGRFTISRDDSKNSLYLQMNSLKTEDTAVYYCRYVHYGAYYGVDAWGQGTTVTVSS
VL: DIVMTQSPLSLPVTPGEPASISCRSSQSLVHSNRNTYLHWYQQKPGQAPRLLIYKVSNRFSGVPDRFSGSGSGTDFTLKISRVEAEDVGVYYCHQGTQVPYTFGQGTKLEIK
notes: one-arm IgG1
B3: CE115HA000/GLS3000 F55T (antibody, IgG1, name in Kabat numbering, V domains shown)
VH: QVQLVESGGGVVQPGRSLRLSCAASGFTFSNAWMHWVRQAPGKGLEWVAQIKAKSNNYATYYAESVKGRFTISRDDSKNSLYLQMNSLKTEDTAVYYCRYVHYGAYYGVDAWGQGTTVTVSS
VL: DIVMTQSPLSLPVTPGEPASISCRSSQSLVHSNRNTYLHWYQQKPGQAPRLLIYKVSNRTSGVPDRFSGSGSGTDFTLKISRVEAEDVGVYYCGQGTQVPYTFGQGTKLEIK
notes: one-arm IgG1
B4: CE115HA000/GLS3000 G89Q (antibody, IgG1, name in Kabat numbering, V domains shown)
VH: QVQLVESGGGVVQPGRSLRLSCAASGFTFSNAWMHWVRQAPGKGLEWVAQIKAKSNNYATYYAESVKGRFTISRDDSKNSLYLQMNSLKTEDTAVYYCRYVHYGAYYGVDAWGQGTTVTVSS
VL: DIVMTQSPLSLPVTPGEPASISCRSSQSLVHSNRNTYLHWYQQKPGQAPRLLIYKVSNRFSGVPDRFSGSGSGTDFTLKISRVEAEDVGVYYCQQGTQVPYTFGQGTKLEIK
notes: one-arm IgG1
B5: CE115HA000/GLS3000 G89R (antibody, IgG1, name in Kabat numbering, V domains shown)
VH: QVQLVESGGGVVQPGRSLRLSCAASGFTFSNAWMHWVRQAPGKGLEWVAQIKAKSNNYATYYAESVKGRFTISRDDSKNSLYLQMNSLKTEDTAVYYCRYVHYGAYYGVDAWGQGTTVTVSS
VL: DIVMTQSPLSLPVTPGEPASISCRSSQSLVHSNRNTYLHWYQQKPGQAPRLLIYKVSNRFSGVPDRFSGSGSGTDFTLKISRVEAEDVGVYYCRQGTQVPYTFGQGTKLEIK
notes: one-arm IgG1
B6: CE115HA000/GLS3000 F55V (antibody, IgG1, name in Kabat numbering, V domains shown)
VH: QVQLVESGGGVVQPGRSLRLSCAASGFTFSNAWMHWVRQAPGKGLEWVAQIKAKSNNYATYYAESVKGRFTISRDDSKNSLYLQMNSLKTEDTAVYYCRYVHYGAYYGVDAWGQGTTVTVSS
VL: DIVMTQSPLSLPVTPGEPASISCRSSQSLVHSNRNTYLHWYQQKPGQAPRLLIYKVSNRVSGVPDRFSGSGSGTDFTLKISRVEAEDVGVYYCGQGTQVPYTFGQGTKLEIK
notes: one-arm IgG1
B7: CE115HA000/GLS3000 G89D (antibody, IgG1, name in Kabat numbering, V domains shown)
VH: QVQLVESGGGVVQPGRSLRLSCAASGFTFSNAWMHWVRQAPGKGLEWVAQIKAKSNNYATYYAESVKGRFTISRDDSKNSLYLQMNSLKTEDTAVYYCRYVHYGAYYGVDAWGQGTTVTVSS
VL: DIVMTQSPLSLPVTPGEPASISCRSSQSLVHSNRNTYLHWYQQKPGQAPRLLIYKVSNRFSGVPDRFSGSGSGTDFTLKISRVEAEDVGVYYCDQGTQVPYTFGQGTKLEIK
notes: one-arm IgG1
B8: CE115HA000/GLS3000 G89I (antibody, IgG1, name in Kabat numbering, V domains shown)
VH: QVQLVESGGGVVQPGRSLRLSCAASGFTFSNAWMHWVRQAPGKGLEWVAQIKAKSNNYATYYAESVKGRFTISRDDSKNSLYLQMNSLKTEDTAVYYCRYVHYGAYYGVDAWGQGTTVTVSS
VL: DIVMTQSPLSLPVTPGEPASISCRSSQSLVHSNRNTYLHWYQQKPGQAPRLLIYKVSNRFSGVPDRFSGSGSGTDFTLKISRVEAEDVGVYYCIQGTQVPYTFGQGTKLEIK
notes: one-arm IgG1
B9: CE115HA000/GLS3000 F55S (antibody, IgG1, name in Kabat numbering, V domains shown)
VH: QVQLVESGGGVVQPGRSLRLSCAASGFTFSNAWMHWVRQAPGKGLEWVAQIKAKSNNYATYYAESVKGRFTISRDDSKNSLYLQMNSLKTEDTAVYYCRYVHYGAYYGVDAWGQGTTVTVSS
VL: DIVMTQSPLSLPVTPGEPASISCRSSQSLVHSNRNTYLHWYQQKPGQAPRLLIYKVSNRSSGVPDRFSGSGSGTDFTLKISRVEAEDVGVYYCGQGTQVPYTFGQGTKLEIK
notes: one-arm IgG1
B10: CE115HA000/GLS3000 F55Y (antibody, IgG1, name in Kabat numbering, V domains shown)
VH: QVQLVESGGGVVQPGRSLRLSCAASGFTFSNAWMHWVRQAPGKGLEWVAQIKAKSNNYATYYAESVKGRFTISRDDSKNSLYLQMNSLKTEDTAVYYCRYVHYGAYYGVDAWGQGTTVTVSS
VL: DIVMTQSPLSLPVTPGEPASISCRSSQSLVHSNRNTYLHWYQQKPGQAPRLLIYKVSNRYSGVPDRFSGSGSGTDFTLKISRVEAEDVGVYYCGQGTQVPYTFGQGTKLEIK
notes: one-arm IgG1
B11: CE115HA000/GLS3000 G89M (antibody, IgG1, name in Kabat numbering, V domains shown)
VH: QVQLVESGGGVVQPGRSLRLSCAASGFTFSNAWMHWVRQAPGKGLEWVAQIKAKSNNYATYYAESVKGRFTISRDDSKNSLYLQMNSLKTEDTAVYYCRYVHYGAYYGVDAWGQGTTVTVSS
VL: DIVMTQSPLSLPVTPGEPASISCRSSQSLVHSNRNTYLHWYQQKPGQAPRLLIYKVSNRFSGVPDRFSGSGSGTDFTLKISRVEAEDVGVYYCMQGTQVPYTFGQGTKLEIK
notes: one-arm IgG1
B12: CE115HA000/GLS3000 F55W (antibody, IgG1, name in Kabat numbering, V domains shown)
VH: QVQLVESGGGVVQPGRSLRLSCAASGFTFSNAWMHWVRQAPGKGLEWVAQIKAKSNNYATYYAESVKGRFTISRDDSKNSLYLQMNSLKTEDTAVYYCRYVHYGAYYGVDAWGQGTTVTVSS
VL: DIVMTQSPLSLPVTPGEPASISCRSSQSLVHSNRNTYLHWYQQKPGQAPRLLIYKVSNRWSGVPDRFSGSGSGTDFTLKISRVEAEDVGVYYCGQGTQVPYTFGQGTKLEIK
notes: one-arm IgG1
B13: CE115HA000/GLS3000 G89K (antibody, IgG1, name in Kabat numbering, V domains shown)
VH: QVQLVESGGGVVQPGRSLRLSCAASGFTFSNAWMHWVRQAPGKGLEWVAQIKAKSNNYATYYAESVKGRFTISRDDSKNSLYLQMNSLKTEDTAVYYCRYVHYGAYYGVDAWGQGTTVTVSS
VL: DIVMTQSPLSLPVTPGEPASISCRSSQSLVHSNRNTYLHWYQQKPGQAPRLLIYKVSNRFSGVPDRFSGSGSGTDFTLKISRVEAEDVGVYYCKQGTQVPYTFGQGTKLEIK
notes: one-arm IgG1
B14: CE115HA000/GLS3000 G89E (antibody, IgG1, name in Kabat numbering, V domains shown)
VH: QVQLVESGGGVVQPGRSLRLSCAASGFTFSNAWMHWVRQAPGKGLEWVAQIKAKSNNYATYYAESVKGRFTISRDDSKNSLYLQMNSLKTEDTAVYYCRYVHYGAYYGVDAWGQGTTVTVSS
VL: DIVMTQSPLSLPVTPGEPASISCRSSQSLVHSNRNTYLHWYQQKPGQAPRLLIYKVSNRFSGVPDRFSGSGSGTDFTLKISRVEAEDVGVYYCEQGTQVPYTFGQGTKLEIK
notes: one-arm IgG1
B15: CE115HA000/GLS3000 G89P (antibody, IgG1, name in Kabat numbering, V domains shown)
VH: QVQLVESGGGVVQPGRSLRLSCAASGFTFSNAWMHWVRQAPGKGLEWVAQIKAKSNNYATYYAESVKGRFTISRDDSKNSLYLQMNSLKTEDTAVYYCRYVHYGAYYGVDAWGQGTTVTVSS
VL: DIVMTQSPLSLPVTPGEPASISCRSSQSLVHSNRNTYLHWYQQKPGQAPRLLIYKVSNRFSGVPDRFSGSGSGTDFTLKISRVEAEDVGVYYCPQGTQVPYTFGQGTKLEIK
notes: one-arm IgG1
B16: CE115HA000/GLS3000 G89T (antibody, IgG1, name in Kabat numbering, V domains shown)
VH: QVQLVESGGGVVQPGRSLRLSCAASGFTFSNAWMHWVRQAPGKGLEWVAQIKAKSNNYATYYAESVKGRFTISRDDSKNSLYLQMNSLKTEDTAVYYCRYVHYGAYYGVDAWGQGTTVTVSS
VL: DIVMTQSPLSLPVTPGEPASISCRSSQSLVHSNRNTYLHWYQQKPGQAPRLLIYKVSNRFSGVPDRFSGSGSGTDFTLKISRVEAEDVGVYYCTQGTQVPYTFGQGTKLEIK
notes: one-arm IgG1
B17: CE115HA000/GLS3000 G89L (antibody, IgG1, name in Kabat numbering, V domains shown)
VH: QVQLVESGGGVVQPGRSLRLSCAASGFTFSNAWMHWVRQAPGKGLEWVAQIKAKSNNYATYYAESVKGRFTISRDDSKNSLYLQMNSLKTEDTAVYYCRYVHYGAYYGVDAWGQGTTVTVSS
VL: DIVMTQSPLSLPVTPGEPASISCRSSQSLVHSNRNTYLHWYQQKPGQAPRLLIYKVSNRFSGVPDRFSGSGSGTDFTLKISRVEAEDVGVYYCLQGTQVPYTFGQGTKLEIK
notes: one-arm IgG1
B18: CE115HA000/GLS3000 G89F (antibody, IgG1, name in Kabat numbering, V domains shown)
VH: QVQLVESGGGVVQPGRSLRLSCAASGFTFSNAWMHWVRQAPGKGLEWVAQIKAKSNNYATYYAESVKGRFTISRDDSKNSLYLQMNSLKTEDTAVYYCRYVHYGAYYGVDAWGQGTTVTVSS
VL: DIVMTQSPLSLPVTPGEPASISCRSSQSLVHSNRNTYLHWYQQKPGQAPRLLIYKVSNRFSGVPDRFSGSGSGTDFTLKISRVEAEDVGVYYCFQGTQVPYTFGQGTKLEIK
notes: one-arm IgG1
B19: CE115HA000/GLS3000 F55R (antibody, IgG1, name in Kabat numbering, V domains shown)
VH: QVQLVESGGGVVQPGRSLRLSCAASGFTFSNAWMHWVRQAPGKGLEWVAQIKAKSNNYATYYAESVKGRFTISRDDSKNSLYLQMNSLKTEDTAVYYCRYVHYGAYYGVDAWGQGTTVTVSS
VL: DIVMTQSPLSLPVTPGEPASISCRSSQSLVHSNRNTYLHWYQQKPGQAPRLLIYKVSNRRSGVPDRFSGSGSGTDFTLKISRVEAEDVGVYYCGQGTQVPYTFGQGTKLEIK
notes: one-arm IgG1
B20: CE115HA000/GLS3000 G89A (antibody, IgG1, name in Kabat numbering, V domains shown)
VH: QVQLVESGGGVVQPGRSLRLSCAASGFTFSNAWMHWVRQAPGKGLEWVAQIKAKSNNYATYYAESVKGRFTISRDDSKNSLYLQMNSLKTEDTAVYYCRYVHYGAYYGVDAWGQGTTVTVSS
VL: DIVMTQSPLSLPVTPGEPASISCRSSQSLVHSNRNTYLHWYQQKPGQAPRLLIYKVSNRFSGVPDRFSGSGSGTDFTLKISRVEAEDVGVYYCAQGTQVPYTFGQGTKLEIK
notes: one-arm IgG1
B21: CE115HA000/GLS3000 G89N (antibody, IgG1, name in Kabat numbering, V domains shown)
VH: QVQLVESGGGVVQPGRSLRLSCAASGFTFSNAWMHWVRQAPGKGLEWVAQIKAKSNNYATYYAESVKGRFTISRDDSKNSLYLQMNSLKTEDTAVYYCRYVHYGAYYGVDAWGQGTTVTVSS
VL: DIVMTQSPLSLPVTPGEPASISCRSSQSLVHSNRNTYLHWYQQKPGQAPRLLIYKVSNRFSGVPDRFSGSGSGTDFTLKISRVEAEDVGVYYCNQGTQVPYTFGQGTKLEIK
notes: one-arm IgG1

T1 sequence (P07766 23-126): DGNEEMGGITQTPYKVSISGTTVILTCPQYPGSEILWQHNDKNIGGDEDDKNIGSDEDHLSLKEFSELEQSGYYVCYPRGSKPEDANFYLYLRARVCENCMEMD

The assay addresses T1, CD3 epsilon homodimer protein (UniProt P07766 23-126).
T1 construct: also called CD3 (CD3 epsilon)
Description: SPR, antibody over immobilised CD3e homodimer.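 Note: SPR at 25 °C with CD3 epsilon homodimer amine-coupled to a CM4 sensor chip and antibody flowed over as analyte in HBS-EP+ running buffer.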 Background: Surface plasmon resonance follows binding to a sensor surface in real time, without labels.
On to B1, for which the “KD ratio to GLS3000” value amounted to 1.09. On to B2, for which the “KD ratio to GLS3000” value was 1.44. As for B3, the figure is 2.42; as for B4, 2.11; as for B5, 4130.

On to B6, for which the “KD ratio to GLS3000” value is 1.12.

As to B7, the “KD ratio to GLS3000” value amounted to 1.96. Turning to B8, the “KD ratio to GLS3000” value was determined as 1.11. As for B9, the figure is 1.15. As for B10, the figure is 1.13. As for B11, the figure is 1.96; as for B12, 1.72; as for B13, 1.8. Take B14: the “KD ratio to GLS3000” value was determined as 34.6. The value for B15 was 1.8. The value for B16 was 1.1; that for B17 was 2.38; that for B18 was 3.34. The value for B19 was 1.27; that for B20 was 1.1.

Turning to B21, the “KD ratio to GLS3000” value is 1.2.
